Tested on: TR/CAR chimera (TR beta A/B and C domains fused to CAR D, E, F domains)
Assay: cell_activity
Settings: no ligand, charcoal-stripped serum; JEG3 cells

AAAGGTAAGATCAGGGACGTGACCGCAG (double strand) [T3RE]
activity (% of TR beta response): > 50

Source: patent US5686574
